Results on three molecules are retold here after paper PMC12564524, “AlphaFold-Guided Semi-Rational Engineering of an (R)-Amine Transaminase for Green Synthesis of Chiral Amines” (Biomolecules, 2025).

For data set [1], the system named is T1, CC(=O)CCc1ccccc1.
T1 construct: N-terminal 6xHis tag, pET-15b, codon-optimised synthetic gene, E. coli BL21(DE3), Ni-NTA purified; about 48 kDa; PLP-dependent fold type IV
The data set is described as follows: HPLC quantification of (R)-1-methyl-3-phenylpropylamine, Michaelis-Menten fit. The format is biochemical, Mycolicibacterium wolinskyi. The note with it: pH 7.0, 40 °C, 30 min, 10 μg/mL enzyme, ketone 0-200 mM, standard assay has 20 mM (R)-2-aminoheptane, 2 mM PLP, 100 mM triethanolamine. An excerpt:
(§1) HPLC quantification of (R)-1-methyl-3-phenylpropylamine, Michaelis-Menten fit on MwoAT

Substrate in data set [2]: CC(=O)CCc1ccccc1
The description is as above. It counts as biochemical, Mycolicibacterium wolinskyi. The settings on record: pH 7.0, 40 °C, 30 min, 10 μg/mL enzyme, ketone 0-200 mM, standard assay has 20 mM (R)-2-aminoheptane, 2 mM PLP, 100 mM triethanolamine.
Excerpt: as §1

Turning to “MwoAT (Mycolicibacterium wolinskyi; L175G)”, in data set [1], the Michaelis constant (Km) (commonly the concentration of substrate that gives half-maximal velocity) is given as 42.87 ± 0.43 mM; the kcat (as a rule, the number of substrate molecules converted per active site and unit of time at saturation) was determined as 5.32 ± 0.026 s⁻¹; the kcat/Km (as a rule, the second-order rate constant that governs catalysis at low substrate concentration) stood at 124 ± 2.5 M⁻¹ s⁻¹.
Take “MwoAT (Mycolicibacterium wolinskyi; L175A)”: in data set [1], the Michaelis constant (Km) is reported as 54.25 ± 2.42 mM, the kcat is 5.677 ± 0.0542 s⁻¹ and the kcat/Km stood at 105 ± 5.67 M⁻¹ s⁻¹.

B1: MwoAT (Mycolicibacterium wolinskyi) (protein)
chain: MQYSDYELDTTSPFAGGVAWIEGEYLPASEAKISIFDTGFGHSDLTYTVAHVWHGNIFRLGDHLDRLLDGARKLRLDPGMSKDELAEITKKCVSLSQLRESFVNLTVTRGYGKRKGEKDLSKLTHQVYIYAIPYLWAFPPSEQIFGTTAIVPRHVRRAGRNTVDPTIKNYQWGDLTAASFEAKDRGARTAILMDADNCVAEGPGFNVVIVKDGKLASPSRNALPGITRKTVFEIADAMGIEAELRDVTSHELYDADELMAVTTAGGVTPINSLDGEPIGDGAPGPLTVAIRDRFWALMDEPSALIEAIQY
notes: N-terminal 6xHis tag, pET-15b, codon-optimised synthetic gene, E. coli BL21(DE3), Ni-NTA purified; about 48 kDa; PLP-dependent fold type IV
B1: in data set [2], the Michaelis constant (Km) turned out to be 68.03 ± 1.68 mM, the kcat worked out at 3.9358 ± 0.0035 s⁻¹ and the kcat/Km was found to be 57.8 ± 1.5 M⁻¹ s⁻¹.
